The values below come from patent US11440969B2, “Use of human epididymis protein 4 (HE4) for assessing responsiveness of MUC 16-positive cancer treatment” (Genentech, Inc., priority 2016, dated 2022).

Entries after “also recorded” stand apart in the source; their conditions may differ.

This assay deals with unresectable pancreatic cancer. As to the kind of experiment: Clinical activity of DMUC5754A (RECIST) in pancreatic cancer patients. The format is in vivo, human. The note with it: PC patients, 2.4 mg/kg q3w, 10 patients treated. As to the method: This multicenter, open-label, dose-escalation study was designed to identify the recommended Phase II dose (RP2D) of DMUC5754A in patients with platinum-resistant OC or unresectable pancreatic cancer. In the single-agent dose escalation stage utilizing a 3+3 enrollment scheme, patients were given intravenous DMUC5754A (Genentech Inc.) 0.3-3.2 mg/kg every 3 weeks (q3w) to evaluate the safety, tolerability, and pharmacokinetics of DMUC5754A. Following determination of the maximum tolerated dose (MTD), dose-expansion cohorts were enrolled at the RP2D of 2.4 mg/kg to further characterize the safety and preliminary clinical efficacy of DMUC5754A.
PC patients had histologic documentation of incurable, locally advanced, or metastatic disease for which no standard therapy exists, consisting of unresectable pancreatic ductal adenocarcinoma (i.e., patients with locally advanced or metastatic disease who are not considered eligible for surgical resection with curative intent), including recurrence of previously-resected disease considered unresectable with curative intent. […]
Objective response rate was estimated only for patients with disease that was measurable by RECIST guidelines. Objective response is defined as a complete or partial response, as determined by investigator assessment and confirmed by repeat assessments ≥4 weeks after initial documentation. […]

B1: DMUC5754A: antibody-drug conjugate: humanized IgG1 anti-MUC16 monoclonal antibody and MMAE, linked through protease labile linker maleimidocaproyl-valine-citrulline-p-aminobenzyloxycarbonyl (conjugate, chains of the INN, looked up)
VH: EVQLVESGGGLVQPGGSLRLSCAASGYSITNDYAWNWVRQAPGKGLEWVGYISYSGYTTYNPSLKSRFTISRDTSKNTLYLQMNSLRAEDTAVYYCARWTSGLDYWGQGTLVTVSS
VL: DIQMTQSPSSLSASVGDRVTITCKASDLIHNWLAWYQQKPGKAPKLLIYGATSLETGVPSRFSGSGSGTDFTLTISSLQPEDFATYYCQQYWTTPFTFGQGTKVEIK
modifications: MMAE via mc-vc-PABC linker
As to B1, the radiographic responses result is “No patients; also recorded: no radiologic responses”.
